Experiments:
[1] = target: human integrin αvβ8 ectodomain (for structural studies) (Homo sapiens, UniProt P06756;P26012); assay: cryo-EM structure
[2] = target: recombinant integrin αvβ1 (R&D Systems) (Homo sapiens (assumed), UniProt P06756;P05556); assay: ELISA
[3] = target: recombinant integrin αvβ3 (R&D Systems) (Homo sapiens (assumed), UniProt P06756;P05106); assay: ELISA
[4] = target: recombinant integrin αvβ5 (R&D Systems) (Homo sapiens (assumed), UniProt P06756;P18084); assay: ELISA
Sequence of recombinant integrin αvβ5 (R&D Systems) (P06756 31-1048, chain 1 of 2): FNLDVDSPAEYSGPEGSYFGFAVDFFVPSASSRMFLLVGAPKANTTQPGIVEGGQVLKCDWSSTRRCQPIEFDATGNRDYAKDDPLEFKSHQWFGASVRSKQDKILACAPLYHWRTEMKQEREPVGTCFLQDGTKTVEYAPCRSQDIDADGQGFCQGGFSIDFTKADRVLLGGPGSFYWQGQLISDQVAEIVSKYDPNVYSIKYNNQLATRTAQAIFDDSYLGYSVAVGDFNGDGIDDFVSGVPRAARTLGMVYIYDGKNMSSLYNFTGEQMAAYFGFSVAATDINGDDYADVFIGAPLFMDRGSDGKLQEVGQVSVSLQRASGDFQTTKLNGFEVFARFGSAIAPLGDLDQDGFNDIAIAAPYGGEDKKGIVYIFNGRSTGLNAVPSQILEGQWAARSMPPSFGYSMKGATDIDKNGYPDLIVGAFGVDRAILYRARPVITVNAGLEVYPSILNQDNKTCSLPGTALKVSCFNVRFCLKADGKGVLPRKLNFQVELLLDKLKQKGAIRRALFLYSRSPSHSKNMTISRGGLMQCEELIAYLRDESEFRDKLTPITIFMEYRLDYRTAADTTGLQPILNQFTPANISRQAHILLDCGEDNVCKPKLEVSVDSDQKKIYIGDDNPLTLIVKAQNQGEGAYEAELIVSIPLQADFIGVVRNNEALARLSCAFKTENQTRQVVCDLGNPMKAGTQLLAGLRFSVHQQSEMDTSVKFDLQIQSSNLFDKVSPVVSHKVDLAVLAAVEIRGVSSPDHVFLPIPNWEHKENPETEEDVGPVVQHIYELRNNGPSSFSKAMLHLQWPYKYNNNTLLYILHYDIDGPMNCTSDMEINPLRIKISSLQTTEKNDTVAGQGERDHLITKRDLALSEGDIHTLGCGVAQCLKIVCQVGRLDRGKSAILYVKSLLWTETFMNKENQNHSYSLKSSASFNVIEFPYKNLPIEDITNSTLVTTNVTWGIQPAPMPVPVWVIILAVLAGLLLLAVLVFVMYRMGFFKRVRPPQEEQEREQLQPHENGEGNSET
Sequence of recombinant integrin αvβ5 (R&D Systems) (P18084 24-719, chain 2 of 2): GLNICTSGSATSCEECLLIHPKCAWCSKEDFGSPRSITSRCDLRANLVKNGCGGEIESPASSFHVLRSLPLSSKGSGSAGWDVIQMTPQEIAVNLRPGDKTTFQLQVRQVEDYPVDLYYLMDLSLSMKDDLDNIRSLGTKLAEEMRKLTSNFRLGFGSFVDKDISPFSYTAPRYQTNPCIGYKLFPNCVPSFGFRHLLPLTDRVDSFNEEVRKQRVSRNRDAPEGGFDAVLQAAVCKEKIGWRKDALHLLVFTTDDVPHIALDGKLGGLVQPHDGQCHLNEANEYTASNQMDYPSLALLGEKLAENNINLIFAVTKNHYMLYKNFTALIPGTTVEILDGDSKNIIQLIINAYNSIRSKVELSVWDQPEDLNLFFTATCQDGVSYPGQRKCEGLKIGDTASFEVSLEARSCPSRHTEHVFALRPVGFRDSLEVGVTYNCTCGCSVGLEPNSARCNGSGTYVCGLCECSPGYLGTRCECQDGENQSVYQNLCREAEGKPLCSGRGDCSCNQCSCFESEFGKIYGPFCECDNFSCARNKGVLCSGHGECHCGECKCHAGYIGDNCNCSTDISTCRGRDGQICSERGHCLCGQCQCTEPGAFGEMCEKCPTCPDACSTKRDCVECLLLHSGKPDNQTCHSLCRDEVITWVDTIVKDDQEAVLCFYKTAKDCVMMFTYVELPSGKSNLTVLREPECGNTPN

Sequence of human integrin αvβ8 ectodomain (for structural studies) (P06756 31-992, chain 1 of 2): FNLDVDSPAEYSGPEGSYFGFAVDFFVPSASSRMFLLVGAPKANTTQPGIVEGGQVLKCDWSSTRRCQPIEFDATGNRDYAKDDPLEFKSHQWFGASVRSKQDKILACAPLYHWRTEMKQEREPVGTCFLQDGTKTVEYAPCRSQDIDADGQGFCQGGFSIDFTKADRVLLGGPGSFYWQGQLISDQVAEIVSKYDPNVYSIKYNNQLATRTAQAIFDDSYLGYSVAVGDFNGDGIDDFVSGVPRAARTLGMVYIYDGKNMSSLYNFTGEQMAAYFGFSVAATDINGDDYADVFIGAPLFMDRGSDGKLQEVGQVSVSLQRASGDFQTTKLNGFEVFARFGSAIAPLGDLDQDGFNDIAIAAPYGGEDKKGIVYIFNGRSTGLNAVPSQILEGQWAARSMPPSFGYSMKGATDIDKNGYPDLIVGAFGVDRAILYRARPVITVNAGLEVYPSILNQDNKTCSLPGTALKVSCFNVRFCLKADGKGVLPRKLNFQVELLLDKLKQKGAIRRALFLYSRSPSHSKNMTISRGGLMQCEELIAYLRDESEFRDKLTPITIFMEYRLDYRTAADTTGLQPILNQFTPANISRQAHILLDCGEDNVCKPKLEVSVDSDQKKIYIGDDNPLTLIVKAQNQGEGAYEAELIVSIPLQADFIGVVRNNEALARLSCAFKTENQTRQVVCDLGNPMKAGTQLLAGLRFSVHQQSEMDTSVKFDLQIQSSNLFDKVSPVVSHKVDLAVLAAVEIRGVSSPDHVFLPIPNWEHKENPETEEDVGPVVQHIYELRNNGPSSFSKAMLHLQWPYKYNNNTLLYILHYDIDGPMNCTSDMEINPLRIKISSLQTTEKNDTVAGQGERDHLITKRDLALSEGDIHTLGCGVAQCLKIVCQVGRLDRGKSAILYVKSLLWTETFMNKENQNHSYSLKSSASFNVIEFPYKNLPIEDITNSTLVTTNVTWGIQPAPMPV
Sequence of human integrin αvβ8 ectodomain (for structural studies) (P26012 43-684, chain 2 of 2): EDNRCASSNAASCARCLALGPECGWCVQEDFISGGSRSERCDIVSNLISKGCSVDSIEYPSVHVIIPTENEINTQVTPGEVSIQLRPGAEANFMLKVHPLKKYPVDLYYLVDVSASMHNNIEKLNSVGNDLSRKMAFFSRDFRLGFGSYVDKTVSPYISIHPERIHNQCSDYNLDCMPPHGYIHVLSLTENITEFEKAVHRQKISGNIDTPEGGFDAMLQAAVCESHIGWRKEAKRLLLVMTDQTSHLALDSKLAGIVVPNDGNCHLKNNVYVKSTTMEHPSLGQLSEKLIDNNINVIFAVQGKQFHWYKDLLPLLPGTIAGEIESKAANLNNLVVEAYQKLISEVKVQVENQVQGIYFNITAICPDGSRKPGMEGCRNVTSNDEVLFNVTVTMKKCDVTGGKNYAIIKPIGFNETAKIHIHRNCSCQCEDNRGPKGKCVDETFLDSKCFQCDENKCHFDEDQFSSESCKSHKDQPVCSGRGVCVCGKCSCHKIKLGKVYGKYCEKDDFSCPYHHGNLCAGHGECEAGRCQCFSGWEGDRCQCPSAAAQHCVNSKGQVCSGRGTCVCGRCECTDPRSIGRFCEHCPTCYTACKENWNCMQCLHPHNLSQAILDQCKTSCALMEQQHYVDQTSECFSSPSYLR
Sequence of recombinant integrin αvβ1 (R&D Systems) (P06756 31-1048, chain 1 of 2): as the sequence (P06756 31-1048, chain 1 of 2) above
Sequence of recombinant integrin αvβ1 (R&D Systems) (P05556 21-728, chain 2 of 2): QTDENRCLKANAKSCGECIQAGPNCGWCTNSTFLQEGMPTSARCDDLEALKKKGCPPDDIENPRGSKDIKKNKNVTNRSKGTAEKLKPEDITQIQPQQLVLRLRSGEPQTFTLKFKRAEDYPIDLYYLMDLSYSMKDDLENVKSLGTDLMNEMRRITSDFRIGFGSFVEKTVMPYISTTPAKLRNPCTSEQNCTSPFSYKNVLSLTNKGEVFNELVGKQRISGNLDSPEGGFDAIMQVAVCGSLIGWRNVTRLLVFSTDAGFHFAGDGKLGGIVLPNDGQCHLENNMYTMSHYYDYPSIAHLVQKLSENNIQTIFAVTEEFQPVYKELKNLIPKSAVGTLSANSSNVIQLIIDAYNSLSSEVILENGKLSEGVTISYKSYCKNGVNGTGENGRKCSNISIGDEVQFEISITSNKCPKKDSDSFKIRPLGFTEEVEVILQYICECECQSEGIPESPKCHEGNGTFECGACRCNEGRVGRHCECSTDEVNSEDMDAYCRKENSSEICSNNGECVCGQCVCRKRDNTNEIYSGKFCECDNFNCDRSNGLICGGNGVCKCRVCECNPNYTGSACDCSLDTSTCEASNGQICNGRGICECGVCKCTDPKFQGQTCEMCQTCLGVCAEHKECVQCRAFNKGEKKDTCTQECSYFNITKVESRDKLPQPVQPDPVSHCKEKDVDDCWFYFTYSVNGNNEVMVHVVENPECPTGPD
Sequence of recombinant integrin αvβ3 (R&D Systems) (P06756 31-1048, chain 1 of 2): as the sequence (P06756 31-1048, chain 1 of 2) above
Sequence of recombinant integrin αvβ3 (R&D Systems) (P05106 27-718, chain 2 of 2): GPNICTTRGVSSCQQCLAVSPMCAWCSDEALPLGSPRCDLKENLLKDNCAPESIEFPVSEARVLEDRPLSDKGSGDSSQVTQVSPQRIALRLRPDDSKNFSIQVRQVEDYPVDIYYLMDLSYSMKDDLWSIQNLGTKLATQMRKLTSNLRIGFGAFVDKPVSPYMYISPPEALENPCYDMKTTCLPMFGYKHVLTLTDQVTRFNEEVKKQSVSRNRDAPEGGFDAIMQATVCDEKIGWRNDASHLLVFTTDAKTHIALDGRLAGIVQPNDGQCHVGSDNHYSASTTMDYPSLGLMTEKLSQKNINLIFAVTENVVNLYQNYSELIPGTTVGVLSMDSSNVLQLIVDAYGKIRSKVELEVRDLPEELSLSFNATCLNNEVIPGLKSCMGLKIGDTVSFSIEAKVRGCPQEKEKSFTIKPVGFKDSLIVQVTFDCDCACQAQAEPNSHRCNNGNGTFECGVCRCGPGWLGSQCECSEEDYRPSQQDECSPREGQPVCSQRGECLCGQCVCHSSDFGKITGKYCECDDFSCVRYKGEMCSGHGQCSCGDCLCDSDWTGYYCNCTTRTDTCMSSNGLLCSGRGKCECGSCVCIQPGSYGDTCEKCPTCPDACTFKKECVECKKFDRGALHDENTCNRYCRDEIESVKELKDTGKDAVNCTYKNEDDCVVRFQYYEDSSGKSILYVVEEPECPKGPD

binding result [1] | binding result [2] | binding result [3] | binding result [4] | Binder
binds |  |  |  | C6-RGD3 Fab (Fab, V domains shown) VH: QIQLVQSGPELKKPGETVKISCKASGYTFTDYSMHWVKQAPGKGLKWVARINTETGEPTFADDFRGRFAVSLETSASTAYLQINNLKNEDTATYFCAIFYYGRDSWGQGTTLTVSS VL: DIVMTQSPSSLAVSAGEKVTMSCKSSQSLLGRGDLGRLKKNALAWYQQKPGQSPRLLIYWASTRESGVPDRFTGSGSGTDFTLTISSVQAEDLAVYYCKQSYNLLSFGAGTKLELK
 | no binding | no binding | no binding | C6-RGD3 antibody (mouse IgG2a) (antibody, V domains shown) VH: QIQLVQSGPELKKPGETVKISCKASGYTFTDYSMHWVKQAPGKGLKWVARINTETGEPTFADDFRGRFAVSLETSASTAYLQINNLKNEDTATYFCAIFYYGRDSWGQGTTLTVSS VL: DIVMTQSPSSLAVSAGEKVTMSCKSSQSLLGRGDLGRLKKNALAWYQQKPGQSPRLLIYWASTRESGVPDRFTGSGSGTDFTLTISSVQAEDLAVYYCKQSYNLLSFGAGTKLELK
